Reference: US20240262919A1 (SHANGHAITECH UNIVERSITY, published 2024)
Numbering of substitutions follows the chain as printed.

Key:
[1] = target: T1, human IL-18Rβ ECD Fc fusion (118-AP-100, R&D Systems) (human, UniProt O95256 20-356); test: ELISA on recombinant human IL-18Rβ, normalised OD 450 nm, Fab with PBS or with saturating IgG 3131 [bottom plot]
T1 construct: Bought protein; also called hIL-18Rβ; recombinant human IL-18Rb; not shown: Fc tag of the bought fusion protein, not described
T1 sequence: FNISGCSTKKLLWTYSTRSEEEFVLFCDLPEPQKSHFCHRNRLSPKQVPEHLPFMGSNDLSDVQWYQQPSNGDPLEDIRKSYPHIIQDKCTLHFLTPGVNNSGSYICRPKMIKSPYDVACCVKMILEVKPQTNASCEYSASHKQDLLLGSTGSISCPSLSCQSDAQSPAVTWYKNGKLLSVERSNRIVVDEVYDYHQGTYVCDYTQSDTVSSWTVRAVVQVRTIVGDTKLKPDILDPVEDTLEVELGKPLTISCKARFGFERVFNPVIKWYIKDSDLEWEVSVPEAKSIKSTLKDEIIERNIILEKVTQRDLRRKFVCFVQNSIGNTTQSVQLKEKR
Source text: (§1) The results are presented in FIG. 9, in which the binding signals for purified. […] Error bars represent standard deviation of replicate measurements.

[2] = target: T1, human IL-18Rβ ECD Fc fusion …; test: ELISA on recombinant human IL-18Rβ, normalised OD 450 nm, Fab with PBS or with saturating IgG 3131 [middle plot]
Source text: as §1

[3] = target: T1, human IL-18Rβ ECD Fc fusion …; test: ELISA on recombinant human IL-18Rβ, normalised OD 450 nm, Fab with PBS or with saturating IgG 3131 [top plot]
Source text: as §1

[4] = target: T1, human IL-18Rβ ECD Fc fusion …; test: SPR (Table 5 title), Fab on human receptor
[5] = target: T1, human IL-18Rβ ECD Fc fusion …; test: biolayer interferometry (BLI) after legend paragraph 36; drawn table, head KD (nM), Human receptor
[6] = target: T1, human IL-18Rβ ECD Fc fusion …; test: competitive binding ELISA with soluble receptor (drawn table, column IC50 (nM))
[7] = target: T1, human IL-18Rβ ECD Fc fusion …; test: multipoint direct binding ELISA (drawn table, column EC50 (nM))
[8] = target: T1, human IL-18Rβ ECD Fc fusion …; test: biolayer interferometry (BLI) after legend paragraph 36; drawn table, head ka (10^4 M^-1 s^-1), Human receptor
[9] = target: T1, human IL-18Rβ ECD Fc fusion …; test: biolayer interferometry (BLI) after legend paragraph 36; drawn table, head kd (10^-4 s^-1), Human receptor

B1: 3131 AM2-36 (Fab, V domains shown)
VH: EVQLVESGGGLVQPGGSLRLSCAASGFNLYYSSMHWVRQAPGKGLEWVASIYSSSGSTSYADSVKGRFTISADTSKNTAYLQMNSLRAEDTAVYYCARSSFSHGYGWYGLDYWGQGTLVTVSS
VL: DIQMTQSPSSLSASVGDRVTITCRASQSVSSAVAWYQQKPGKAPKLLIYSASSLYSGVPSRFSGSRSGTDFTLTISSLQPEDFATYYCQQYGYHYAGLITFGQGTKVEIK
notes: Fab
binding result [1]: binds

B2: 3131 AM2-S-G (Fab, V domains shown)
VH: B1 VH with S55Y, S57Y, S59Y
VL: B1 VL with S50G
notes: Fab
binding result [1]: binds

B3: 3131 AM2-15 (Fab, V domains shown)
VH: B1 VH with S57D, S59G
VL: B1 VL
notes: Fab
binding result [2]: binds

B4: 3131 AM2-32 (Fab, V domains shown)
VH: B1 VH with S55Y, S57Y, S59Y
VL: B1 VL with A51S, L54V
notes: Fab
binding result [1]: binds

B5: 3131 AM2-7 (Fab, V domains shown)
VH: B1 VH with S55H, S57G, S59Y
VL: B1 VL with Y95D
notes: Fab
binding result [3]: binds

B6: 3131 AM2-33 (Fab, V domains shown)
VH: B1 VH with S55Y, S57H
VL: B1 VL
notes: Fab
binding result [1]: binds

B7: 3131 AM2-25 (Fab, V domains shown)
VH: B1 VH with S55Y, S57Y, S59Y
VL: B1 VL with L54R, Y55D
notes: Fab
binding result [2]: binds

B8: 3131 AM2-4 (Fab, V domains shown)
VH: B1 VH with S59C
VL: B1 VL
notes: Fab
binding result [3]: binds

B9: 3131 AM2-24 (Fab, V domains shown)
VH: B1 VH with S55Y, S57Y, S59Y
VL: B1 VL with A51D
notes: Fab
binding result [2]: binds

B10: 3131 AM2-13 (Fab, V domains shown)
VH: B1 VH with S55Y, S57Y, S59Y
VL: B1 VL with Y95D
notes: Fab
binding result [3]: binds

B11: 3131 AM2-18 (Fab, V domains shown)
VH: B1 VH with S55G
VL: B1 VL
notes: Fab
binding result [2]: binds

B12: 3131 AM2-28 (Fab, V domains shown)
VH: B1 VH with S55Y, S57Y, S59Y
VL: B1 VL with A51R, L54D, Y55S
notes: Fab
binding result [2]: binds

B13: 3131 AM2-37 (Fab, V domains shown)
VH: B1 VH
VL: B1 VL with Y95S
notes: Fab
binding result [1]: binds

B14: 3131 AM2-2 (Fab, V domains shown)
VH: B1 VH with S55H, S57R, S59G
VL: B1 VL with L54R, Y55D
notes: Fab
binding result [3]: binds

B15: 3131 AM2-6 (Fab, V domains shown)
VH: B1 VH with S55H, S57G, S59N
VL: B1 VL
notes: Fab
binding result [3]: binds

B16: 3131 AM2-S-Y (Fab, V domains shown)
VH: B1 VH with S55Y, S57Y, S59Y
VL: B1 VL with S50Y
notes: Fab
binding result [1]: binds

B17: 3131 AM2-17 (Fab, V domains shown)
VH: B1 VH with S55H, S57N, S59D
VL: B1 VL
notes: Fab
binding result [2]: binds

B18: 3131 AM2-S-H (Fab, V domains shown)
VH: B1 VH with S55Y, S57Y, S59Y
VL: B1 VL with S50H
notes: Fab
binding result [1]: binds

B19: 3131 AM2-26 (Fab, V domains shown)
VH: B1 VH with S55Y, S57Y, S59Y
VL: B1 VL with A51E, Y55S
notes: Fab
binding result [2]: binds

B20: 3131 AM2-1 (Fab, V domains shown)
VH: B1 VH with S55Y, S57Y, S59Y
VL: B1 VL with Y95H
notes: Fab
binding result [3]: binds

B21: 3131 AM2-S-T (Fab, V domains shown)
VH: B1 VH with S55Y, S57Y, S59Y
VL: B1 VL with S50T
notes: Fab
binding result [1]: binds

B22: 3131 AM2-5 (Fab, V domains shown)
VH: B1 VH with S57D, S59H
VL: B1 VL
notes: Fab
binding result [3]: binds

B23: 3131 AM2-21 (Fab, V domains shown)
VH: B1 VH with S55Y, S57Y, S59Y
VL: B1 VL with A51G, L54G, Y55R
notes: Fab
binding result [2]: binds

B24: 3131 AM2-9 (Fab, V domains shown)
VH: B1 VH with S55Y, S57Y, S59Y
VL: B1 VL with Y95N
notes: Fab
binding result [3]: binds

B25: 3131 AM2-35 (Fab, V domains shown)
VH: B1 VH with S55Y, S57Y, S59Y
VL: B1 VL with Y95S
notes: Fab
binding result [1]: binds

B26: 3131 AM2-14 (Fab, V domains shown)
VH: B1 VH with S55Y, S57Y, S59Y
VL: B1 VL with Y95G
notes: Fab
binding result [3]: binds

B27: 3131 AM2-30 (Fab, V domains shown)
VH: B1 VH with S55Y, S57Y, S59Y
VL: B1 VL with L54E, Y55R
notes: Fab
binding result [2]: binds

B28: 3131 AM2-3 (Fab, V domains shown)
VH: B1 VH with S57Y
VL: B1 VL
notes: Fab
binding result [3]: binds

B29: 3131 AM2-31 (Fab, V domains shown)
VH: B1 VH with S55Y, S57Y, S59Y
VL: B1 VL with A51E
notes: Fab
binding result [2]: binds

B30: Fab A3 (Fab)
heavy: EVQLVESGGGLVQPGGSLRLSCAASGFNLYSSYIHWVRQAPGKGLEWVASIYSSSGYTYYADSVKGRFTISADTSKNTAYLQMNSLRAEDTAVYYCARSVHSYYSSAAYYAMDYWGQGTLVTVSSASTKGPSVFPLAPSSKSTSGGTAALGCLVKDYFPEPVTVSWNSGALTSGVHTFPAVLQSSGLYSLSSVVTVPSSSLGTQTYICNVNHKPSNTKVDKKVEPKSCDKTHT
light: DIQMTQSPSSLSASVGDRVTITCRASQSVSSAVAWYQQKPGKAPKLLIYSASSLYSGVPSRFSGSRSGTDFTLTISSLQPEDFATYYCQQSYFLITFGQGTKVEIKRTVAAPSVFIFPPSDSQLKSGTASVVCLLNNFYPREAKVQWKVDNALQSGNSQESVTEQDSKDSTYSLSSTLTLSKADYEKHKVYACEVTHQGLSSPVTKSFNRGECGGSDYKDDDDK
notes: also called FA3
Kd [4]: 78 nM | koff [4]: 0.0016 s⁻¹ | kon [4]: 20000 M⁻¹ s⁻¹ | Kd [5]: 30 nM | IC50 [6]: 105 nM | EC50 [7]: 86 nM | kon [8]: 51000 M⁻¹ s⁻¹ | koff [9]: 0.0015 s⁻¹
